The data set “crystal structure” concerns the molecule itself. Nature of the data set: crystal structure.
The target in data set [1] is T1, Sulfolobus islandicus PilT N-terminal-domain-containing ATPase (SisPINA), untagged (Sulfolobus islandicus REY15A, UniProt F0NID4 1-505).
T1 sequence (looked up): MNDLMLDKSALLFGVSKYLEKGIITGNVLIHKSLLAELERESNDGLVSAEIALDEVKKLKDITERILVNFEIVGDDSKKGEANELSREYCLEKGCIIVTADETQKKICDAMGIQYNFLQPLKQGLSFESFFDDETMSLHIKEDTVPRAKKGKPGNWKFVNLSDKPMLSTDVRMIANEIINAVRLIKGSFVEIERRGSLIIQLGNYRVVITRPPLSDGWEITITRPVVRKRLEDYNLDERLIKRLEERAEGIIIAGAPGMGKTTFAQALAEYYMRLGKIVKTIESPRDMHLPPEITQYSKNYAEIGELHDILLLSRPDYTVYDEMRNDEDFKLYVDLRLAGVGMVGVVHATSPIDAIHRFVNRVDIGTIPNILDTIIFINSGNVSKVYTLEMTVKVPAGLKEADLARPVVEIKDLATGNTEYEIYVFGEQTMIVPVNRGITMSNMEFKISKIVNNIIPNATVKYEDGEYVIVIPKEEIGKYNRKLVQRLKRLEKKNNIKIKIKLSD
Nature of the data set: pull-down.

Numbering of substitutions follows the chain as printed.

B1: SisPINAK261A, Walker A mutant of SisPINA (enzyme, Sulfolobus islandicus REY15A, UniProt F0NID4 1-505, looked up)
chain: T1 sequence (looked up) with K261A
Broadly, the stoichiometry N is the number of molecules, sites or subunits per partner or assembly. Turning to B1, in “crystal structure”, the “stoichiometry N” value was found to be 6.

B2: N-terminal His-tagged SisHjc (enzyme, Sulfolobus islandicus REY15A, UniProt F0NID3 1-143, looked up)
chain: MNAKKRKGSAVERNIVGKLRDKGFAVVRAPASGSKRKDPIPDIIALKSGVIILIEMKSRKDKEGKIYVRREQAEGIMEFARKSGGTLFLGVKKPGVLKFIPFDKLRRTETGNYVADSEIEGLDLEDLVRLVEAKVSKTLDNFL
Turning to B2, the binding result in data set [1] is reported as “binds”.

(Values after PMC5565510 (Journal of molecular biology, 2017).)
